In the supplement of paper PMC11865577:

Legend:
Test in all cases: pull-down binding Z-score (relative to library population); higher = stronger binding
Conditions in all cases: RNA library: Library-2
[1] = tested on: TO-3-N3 (biotin conjugate)
Method in brief: (§1)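 Streptavidin beads bearing 100 pmol of a biotin-conjugated small molecule were incubated for 60 min at 25 °C with 1 μg of heat-folded, Cy5- or Cy3-end-labelled RNA library in phosphate/NaCl/KCl buffer. Hot SDS eluted the RNA that stayed bound after three washes, and this RNA was hybridised for 20 h at 55.5 °C to a DNA barcode microarray. Binding was expressed as a Z-score against the library mean and standard deviation, after subtraction of a beads-only signal and trimmed averaging of barcoded replicate probes.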

[2] = tested on: TO-3-N3-2 (biotin conjugate)
Method in brief: as §1

TO-N3 (biotin conjugate) = tested on: TO-N3 (biotin conjugate)
Method in brief: as §1

[3] = tested on: TO-N3-2 (biotin conjugate)
Method in brief: as §1

Sequence	pull-down binding Z-score [1]	pull-down binding Z-score [2]	pull-down binding Z-score (TO-N3 (biotin conjugate))	pull-down binding Z-score [3]
CAGGCAAGAAGGAUACUUACCUG [U1snRNP5ss-25]	-0.164	-0.366	-0.353	-0.695
CAGGCAAUAACAGUUACACCGGAAGCCAAUAUGGAUCAAGAAUCCUUUGGUGGUGCAUCGUGUUGUCUG [SHAPE_invivo_SARS-CoV-2_Motif_250]	0.944	0.619	1.2	0.779
CAGGCCACAAAUAGGCGUG	-0.638	-0.502	-0.509	0.278
CAGGCCAUCACAAAUGCCACAGCUUGAGUAAACUGUGCAGCCUG [3-way model-2_DENV2]	-0.433	-0.224	-0.464	-0.0801
CAGGUACAGUAGAUACUUACCUG [U1snRNP5ss-19]	-0.605	-0.722	-0.984	-1.09
CAGGUAUGAAUGAUACUUACCUG [U1snRNP5ss-11]	1.06	0.369	0.898	0.225
CAGGUGACUUUGAUACUUACCUG [U1snRNP5ss-18]	-0.734	-0.615	-0.974	-0.978
CAGGUUUGUGAGAUACUUACCUG [U1snRNP5ss-14]	-0.473	-0.404	-0.661	-0.792
CAGUACAAUUCUGUGAUGCCAUGCGAAAUGCUGGUAUUGUUGGUGUACUG	-0.432	-0.441	-0.499	-0.171
CAGUUGAAACAUCAAAUUCGUUUGAUGUACUG	-0.685	-0.516	-1.04	-1.22
CAGUUUACUCACACCUUUUGCUCGUUGCUGCUG	-0.164	-0.285	-0.0216	0.0199
CAGUUUGGUCCAACUUAUUUGGAUGGAGCUG	-0.686	-0.514	-1	-0.976
CAUAAACGAACUUAUGGAUUUGUUUAUG	-0.474	-0.393	-0.904	-1.25
CAUAGAUUAUGACUGUG [SHAPE_invivo_SARS-CoV-2_Motif_206]	-0.165	-0.373	-0.396	-0.826
CAUCAAAACCAAGCAAGAGGUCAUUUAUUGAAGAUCUACUUUUCAACAAAGUGACACUUGCAGAUG [DMSMaPseq_invitro_SARS-CoV-2_Motif_426]	-0.806	-0.0955	-0.92	-0.851
CAUCAACCAUAUGUAGUUGAUG	-0.47	-0.283	-0.872	-1.15
CAUCAUAUGCAGCUUUUGCUACUGCUCAAGAAGCUUAUGAGCAGGCUGUUGCUAAUGGUG	-1.04	-0.315	-0.917	-0.238
CAUCGUUGAUAGUG [SHAPE_invitro_SARS-CoV-2_Motif_152]	0.718	0.263	0.76	0.588
CAUGAAGUGUGAUCAUUGUGGUGAAACUUCAUG	-0.496	-0.154	-0.605	-0.279
CAUGAGCAGUGCUGACUCAACUCAGGCCUAAACUCAUG	-0.197	0.0138	0.27	0.83
CAUGCAAAUUACAUAUUUUGGAGGAAUACAAAUCCAAUUCAGUUGUCUUCCUAUUCUUUAUUUGACAUG	-0.857	-0.152	-1.08	-0.803
CAUGCUGAUUUUGACACAUGGUUUAGCCAGCGUG [DMSMaPseq_invitro_SARS-CoV-2_Motif_160]	-0.604	-0.409	-0.64	-0.276
CAUGGAUUUGUCUUCUACAAUUUGCCUAUG	-0.852	-0.186	-0.967	-0.745
CAUGUCAUGUCUAAACAUACUGACUUUUCAAGUG [SHAPE_invitro_SARS-CoV-2_Motif_169]	-0.283	-0.276	-0.41	-0.539
CAUGUGAUCUGCACCUCUGAAGACAUG	0.111	0.185	0.248	0.33
CAUGUGGUAGUGUUGGUUUUAACAUAGAUUAUGACUGUGUCUCUUUUUGUUACAUGCACCAUAUG	1.54	0.0495	1.48	-0.00779

Sequence	pull-down binding Z-score [1]	pull-down binding Z-score [2]	pull-down binding Z-score (TO-N3 (biotin conjugate))	pull-down binding Z-score [3]
CAUGUGUUGGUAGCGAUAAUGUUACUGACUUUAAUG	-0.663	-0.614	-0.995	-1.01
CAUGUUUAUCACCCGCGAAGAAGCUAUAAGACAUGUACGUGCAUGGAUUGGCUUCGAUGUCGAGGGGUGUCAUG [DMSMaPseq_invitro_SARS-CoV-2_Motif_326]	-0.699	-0.363	-0.771	-0.0649
CAUUACUUUAUGAUG [SHAPE_invitro_SARS-CoV-2_Motif_468]	0.168	-0.259	-0.055	-1.02
CAUUUGUAGUUUCAACUGGAUACCACUUCAGAGAGCUAGGUGUUGUACAUAAUCAGGAUGUAAACUUACAUAGCUCUAGACUUAGUUUUAAGGAAUUACUUGUG	-0.927	-0.292	-0.109	0.127
CCAAGACAUGUGAUCUGCACCUCUGAAGACAUGCUUAACCCUAAUUAUGAAGAUUUACUCAUUCGUAAGUCUAAUCAUAAUUUCUUGG [DMSMaPseq_invitro_SARS-CoV-2_Multi_33_ComplexLevel_1]	0.403	-0.101	0.332	0.229
CCAAGGAAAUUUUGG	-0.192	-0.382	-0.373	-0.948
CCACAUAGAUCAUCCAAAUCCUAAAGGAUUUUGUGACUUAAAAGG [SHAPE_invivo_SARS-CoV-2_Motif_251]	-0.167	-0.357	-0.169	-0.137
CCACAUUUUCACCGAGGCCACGCGGAGUACGAUCGAGUGUACAGUGAACAAUGCUAGG	-0.147	0.563	0.772	1.34
CCACGCACAUUGCUAACUAAGGGCACACUAGAACCAGAAUAUUUCAAUUCAGUGUGUAGACUUAUGAAAACUAUAGGUCCAGACAUGUUCCUCGGAACUUGUCGG	-0.478	-0.0669	-0.189	0.139
CCACGCCAGGUAGUGG	1.16	0.0319	0.912	-0.539
CCACGCUCGUUCCGACACCGGAACGGCACUCGACACCGAGUGCAGCGUGG [3-way model-3_NoName]	1.17	1.41	1.51	1.93
CCACUUGGCUAUGUAACACAUGGCUUAAAUUUGG [DMSMaPseq_invitro_SARS-CoV-2_Motif_85]	0.386	-0.0708	0.127	-0.575
CCAGAGAAGAAACUGG	0.466	0.0828	0.417	0.486
CCAGUACCAGAGGUGAAAAUACUCAAUAAUUUGGGUGUGGACAUUGCUGCUAAUACUGUG	1.32	0.266	1.18	-0.0208
CCAGUAUCUGAAUUACUUACACCACUGG [SHAPE_invivo_SARS-CoV-2_Motif_58]	0.91	0.119	0.688	-0.0924
CCAGUAUCUGAAUUACUUACACCACUGGGCAUUGAUUUAGAUGAGUGGAGUAUGGCUACAUACUACUUAUUUGAUGAGUCUGGUGAGUUUAAAUUGG	-0.742	-0.468	-0.752	-0.946
CCAGUAUGGUGG [IAV_invivo_PB1_2_Motif_36+IAV_invivo_PB1_2_Motif_36]	-0.26	-0.471	-0.423	-0.372
CCAUAAUGAAUCUGG [DMSMaPseq_invitro_SARS-CoV-2_Motif_27]	-0.322	-0.198	-0.345	-0.529
CCAUGGCAGAUUCCAACGGUACUAUUACCGUUGAAGAGCUUAAAAAGCUCCUUGAACAAUGGAACCUAGUAAUAGGUUUCCUAUUCCUUACAUGG [DMSMaPseq_invitro_SARS-CoV-2_Multi_81_ComplexLevel_1]	-0.195	-0.516	-0.621	-0.419
CCAUGGGACAGGAACAGGAUACACCAUGG [IAV_invivo_PB1_2_Motif_4+IAV_invivo_PB1_2_Motif_4]	-0.411	0.154	-0.056	0.927
CCAUUCUUCGUAAGGGUGG [DMSMaPseq_invitro_SARS-CoV-2_Motif_28]	0.0314	-0.245	-0.198	-0.66
CCAUUUCAUCUUUUAAAUGG	-0.598	-0.38	-0.985	-0.946
CCAUUUGCUAUGCAAAUGG	-0.562	-0.677	-1.05	-1.56
CCCAAGUCAUGAAGGAGAGGG [IAV_invivo_PA_3_Motif_13+IAV_invivo_PA_3_Motif_13]	0.689	0.497	0.816	0.652
CCCAAUCAUGAAGGG [IAV_invivo_PB1_2_Motif_24+IAV_invivo_PB1_2_Motif_24]	-0.131	-0.407	-0.488	-0.373
CCCAAUCGUGGCGUGUCGGCCUGCUUCGGCAGGCACUGGCGCCG [Pepper530]	0.37	0.0777	0.516	1.13
